Experimental data published in publication PMC12589613, “ATP-dependent one-dimensional movement maintains immune homeostasis by suppressing spontaneous MDA5 filament assembly” (Cell Research, 2025).

T1: MDA5(R337G) (human, UniProt Q9BYX4 1-1025, R337G, Cy3 on a peptide (Cy3-CLPETGG) ligated by sortase; used unlabelled in some experiments)
T1 sequence (looked up): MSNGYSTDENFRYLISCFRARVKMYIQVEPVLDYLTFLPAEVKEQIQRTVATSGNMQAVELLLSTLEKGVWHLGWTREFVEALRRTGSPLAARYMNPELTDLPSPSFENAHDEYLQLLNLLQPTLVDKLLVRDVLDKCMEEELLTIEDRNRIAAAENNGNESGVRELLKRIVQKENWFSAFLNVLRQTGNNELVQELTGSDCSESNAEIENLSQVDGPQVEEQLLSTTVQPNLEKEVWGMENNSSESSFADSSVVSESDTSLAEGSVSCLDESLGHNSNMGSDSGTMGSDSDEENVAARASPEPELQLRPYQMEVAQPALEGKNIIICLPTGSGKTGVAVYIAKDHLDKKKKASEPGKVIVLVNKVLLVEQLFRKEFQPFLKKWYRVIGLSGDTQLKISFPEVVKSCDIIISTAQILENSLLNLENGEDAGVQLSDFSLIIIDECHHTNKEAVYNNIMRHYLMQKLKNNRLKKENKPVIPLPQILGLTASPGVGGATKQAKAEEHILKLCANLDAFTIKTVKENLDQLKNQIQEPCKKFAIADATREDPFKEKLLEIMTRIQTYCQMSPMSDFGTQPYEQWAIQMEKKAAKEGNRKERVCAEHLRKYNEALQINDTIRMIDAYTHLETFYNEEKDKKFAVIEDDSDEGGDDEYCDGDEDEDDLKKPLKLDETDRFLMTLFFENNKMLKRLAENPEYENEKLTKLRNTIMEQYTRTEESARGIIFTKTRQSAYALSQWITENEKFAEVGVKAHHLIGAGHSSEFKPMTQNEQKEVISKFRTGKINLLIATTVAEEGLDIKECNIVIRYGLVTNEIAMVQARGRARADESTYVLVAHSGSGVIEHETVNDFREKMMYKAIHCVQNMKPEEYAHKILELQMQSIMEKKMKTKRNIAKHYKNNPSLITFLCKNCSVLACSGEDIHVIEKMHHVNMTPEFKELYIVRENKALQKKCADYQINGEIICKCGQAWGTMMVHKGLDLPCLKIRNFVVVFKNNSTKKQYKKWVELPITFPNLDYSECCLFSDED

T2: MDA5(M854K) (human, UniProt Q9BYX4 1-1025, M854K, Cy3 on a peptide (Cy3-CLPETGG) ligated by sortase; used unlabelled in some experiments)
T2 sequence (looked up): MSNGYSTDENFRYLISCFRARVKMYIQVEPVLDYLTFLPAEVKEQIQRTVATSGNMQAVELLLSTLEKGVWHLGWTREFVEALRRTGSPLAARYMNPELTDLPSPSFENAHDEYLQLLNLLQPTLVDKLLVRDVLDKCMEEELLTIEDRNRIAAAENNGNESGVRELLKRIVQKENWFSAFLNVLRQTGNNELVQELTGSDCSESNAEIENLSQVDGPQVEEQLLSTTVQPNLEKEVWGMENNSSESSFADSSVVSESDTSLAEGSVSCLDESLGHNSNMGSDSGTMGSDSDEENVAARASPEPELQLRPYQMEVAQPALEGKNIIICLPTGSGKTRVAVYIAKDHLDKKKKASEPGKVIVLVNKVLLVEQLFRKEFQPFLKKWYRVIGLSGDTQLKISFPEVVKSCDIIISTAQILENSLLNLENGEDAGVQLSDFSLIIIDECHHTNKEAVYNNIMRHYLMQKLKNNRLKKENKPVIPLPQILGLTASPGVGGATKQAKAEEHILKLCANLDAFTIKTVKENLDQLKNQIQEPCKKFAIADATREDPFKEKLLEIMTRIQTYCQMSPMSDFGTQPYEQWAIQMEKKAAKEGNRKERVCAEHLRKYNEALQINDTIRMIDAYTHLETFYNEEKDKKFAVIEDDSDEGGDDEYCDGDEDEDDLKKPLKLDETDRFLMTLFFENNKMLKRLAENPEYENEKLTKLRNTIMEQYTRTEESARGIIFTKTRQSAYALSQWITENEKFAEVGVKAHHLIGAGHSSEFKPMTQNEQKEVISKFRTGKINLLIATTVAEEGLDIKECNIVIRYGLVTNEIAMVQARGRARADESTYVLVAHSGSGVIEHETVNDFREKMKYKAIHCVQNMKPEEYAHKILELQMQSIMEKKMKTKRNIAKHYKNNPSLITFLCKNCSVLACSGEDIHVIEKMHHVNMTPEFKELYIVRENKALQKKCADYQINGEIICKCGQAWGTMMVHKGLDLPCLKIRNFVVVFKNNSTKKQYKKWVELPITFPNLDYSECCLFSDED


Tests used:
Settings in all cases: both partners purified
MDA5(R337G) [1] = target: T1, MDA5(R337G); assay: single-molecule TIRF imaging (smTIRF) on dsRNA; 60 nM Cy3-LGP2 with or without 60 nM unlabelled MDA5, MDA5(R337G) or MDA5(M854K) on stretched, surface-anchored 11.6-kb dsRNA; Imaging Buffer (20 mM Tris-HCl pH 7.5, 100 mM NaCl, 1.5 mM MgCl2, 2 mM ATP unless stated otherwise), 23 °C
MDA5(M854K) [2] = target: T2, MDA5(M854K); assay: as above
MDA5(R337G) [3] = target: T1, MDA5(R337G); assay: single-molecule TIRF imaging (smTIRF) on dsRNA; MAVS-CARD recruitment without LGP2: Cy3-MDA5, Cy3-MDA5(R337G) or Cy3-MDA5(M854K) (100 nM) and AF647-MAVS-CARD (100 nM) on 11.6-kb dsRNA; Imaging Buffer with 2 mM ATP, 23 °C
MDA5(M854K) [4] = target: T2, MDA5(M854K); assay: as above

Row | binding result (MDA5(R337G) [1]) | binding result (MDA5(M854K) [2]) | binding result (MDA5(R337G) [3]) | binding result (MDA5(M854K) [4]) | Binder
1 | binds | binds | – | – | human LGP2 (natural protein, UniProt Q96C10 1-678, looked up, Cy3 or Cy5 on a peptide (GGGC-Cy3/Cy5) ligated by sortase; used unlabelled in some experiments) MELRSYQWEVIMPALEGKNIIIWLPTGAGKTRAAAYVAKRHLETVDGAKVVVLVNRVHLVTQHGEEFRRMLDGRWTVTTLSGDMGPRAGFGHLARCHDLLICTAELLQMALTSPEEEEHVELTVFSLIVVDECHHTHKDTVYNVIMSQYLELKLQRAQPLPQVLGLTASPGTGGASKLDGAINHVLQLCANLDTWCIMSPQNCCPQLQEHSQQPCKQYNLCHRRSQDPFGDLLKKLMDQIHDHLEMPELSRKFGTQMYEQQVVKLSEAAALAGLQEQRVYALHLRRYNDALLIHDTVRAVDALAALQDFYHREHVTKTQILCAERRLLALFDDRKNELAHLATHGPENPKLEMLEKILQRQFSSSNSPRGIIFTRTRQSAHSLLLWLQQQQGLQTVDIRAQLLIGAGNSSQSTHMTQRDQQEVIQKFQDGTLNLLVATSVAEEGLDIPHCNVVVRYGLLTNEISMVQARGRARADQSVYAFVATEGSRELKRELINEALETLMEQAVAAVQKMDQAEYQAKIRDLQQAALTKRAAQAAQRENQRQQFPVEHVQLLCINCMVAVGHGSDLRKVEGTHHVNVNPNFSNYYNVSRDPVVINKVFKDWKPGGVISCRNCGEVWGLQMIYKSVKLPVLKVRSMLLETPQGRIQAKKWSRVPFSVPDFDFLQHCAENLSDLSLD
2 | – | – | binds | binds | MAVS-CARD(D23K/E26K/E80K) (domain or fragment, UniProt Q7Z434 1-97, looked up, Alexa Fluor 647 (SNAP-Surface Alexa Fluor 647 substrate) on the SNAP-tag, pET47b plasmid from the Sun Hur lab; also called AF647-MAVS-CARD; not shown: SNAP-tag, C-terminal, kept) MPFAEDKTYKYICRNFSNFCNVKVVKILPYLPCLTARDQDRLRATCTLSGNRDTLWHLFNTLQRRPGWVEYFIAALRGCKLVDLADEVASVYQSYQP
